In patent EP2123670B1:

Columns and labels:
Details in all cases: remark: other sources report otherwise
factor XIIa, P00748 [1] = target: T1, factor XIIa, P00748; assay: SPR (BIAcore X), Ir-CPI immobilised at about 200 RU, factor injected at 5-300 nM; two-state model, kd1 (first step)
T1 chain: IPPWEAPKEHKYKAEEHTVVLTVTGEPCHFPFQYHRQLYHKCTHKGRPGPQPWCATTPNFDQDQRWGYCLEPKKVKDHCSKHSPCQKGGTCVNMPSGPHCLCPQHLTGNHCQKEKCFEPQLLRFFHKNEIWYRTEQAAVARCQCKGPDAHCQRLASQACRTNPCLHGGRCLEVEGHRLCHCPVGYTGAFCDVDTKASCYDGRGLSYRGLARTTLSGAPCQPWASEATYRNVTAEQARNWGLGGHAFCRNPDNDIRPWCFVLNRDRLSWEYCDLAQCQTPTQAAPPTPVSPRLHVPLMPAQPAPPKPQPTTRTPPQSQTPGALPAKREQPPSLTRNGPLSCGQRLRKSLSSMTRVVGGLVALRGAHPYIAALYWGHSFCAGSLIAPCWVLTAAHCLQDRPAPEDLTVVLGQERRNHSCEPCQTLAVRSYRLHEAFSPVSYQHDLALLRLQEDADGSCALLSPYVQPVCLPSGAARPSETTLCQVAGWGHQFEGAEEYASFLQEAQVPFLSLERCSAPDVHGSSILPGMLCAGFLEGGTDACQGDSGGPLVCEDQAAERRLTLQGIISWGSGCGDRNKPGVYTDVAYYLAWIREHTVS

factor XIIa, P00748 [2] = target: T1, factor XIIa, P00748; assay: SPR, Ir-CPI immobilised; two-state model, backward rate of the conformation change
factor XIIa, P00748 [3] = target: T1, factor XIIa, P00748; assay: SPR, Ir-CPI immobilised; two-state model, global equilibrium constant K = ka1ka2/kd1kd2
factor XIIa, P00748 [4] = target: T1, factor XIIa, P00748; assay: SPR (BIAcore X), Ir-CPI immobilised at about 200 RU, factor injected at 5-300 nM; two-state model, ka1 (first step)
factor XIIa, P00748 [5] = target: T1, factor XIIa, P00748; assay: SPR, Ir-CPI immobilised; two-state model, forward rate of the conformation change

B1: Ir-CPI, Q9GP15 20-86 (protein)
chain: ANHKGRGRPAKCKLPPDDGPCRARIPSYYFDRKTKTCKEFMYGGCEGNENNFENITTCQEECRAKKV
Factor XIIa, P00748 [1]
  koff: 0.0946 s⁻¹
Factor XIIa, P00748 [2]
  kd2: 0.105 s⁻¹
Factor XIIa, P00748 [3]
  Ka: 1.68e+08 M⁻¹
Factor XIIa, P00748 [4]
  kon: 219000 M⁻¹ s⁻¹
Factor XIIa, P00748 [5]
  ka2: 0.655 s⁻¹
